Assay results from patent publication US20220389113A1, “BINDING PROTEINS TO CUB DOMAIN-CONTAINING PROTEIN (CDCP1)” (COMMONWEALTH SCIENTIFIC AND INDUSTRIAL RESEARCH ORGANISATION, priority 2019, published 2022).

Experiments:
[1] = tested on: CDCP1^GFP in HEY cells; experiment: Live-cell spinning-disk confocal microscopy of HEY-CDCP1^GFP cells; type: cell-based; conditions: dasatinib 200 nM pre-treatment
Experimental: Live-cell spinning-disk confocal imaging was performed as described (Stehbens S J, et al., (2014) 16(6):561-73.) on an environmentally controlled Nikon TI inverted microscope (Nikon, New York) equipped with a Borealis-modified Yokogawa CSU-X1 confocal head (Spectral Applied Research, Ontario Canada) and a Clara cooled interline charge-coupled device (CCD) camera (Andor Technology, Belfast, United Kingdom). Dynamics of fluorescent proteins were imaged at 37° C. using a 60×1.49 NA objective (Nikon) with imaging of CDCP1^GFP internalization induced by 10D7^pH performed at ˜1 frame/sec. Image analysis and quantification was performed using Imaris 7.1 software (Bitplane, Zurich, Switzerland) (Morton J P, et al., (2010) 139(1):292-303.). Briefly, the Spots creation wizard automatically subtracted background and detected CDCP1^GFP puncta which were filtered for analysis based on threshold values above 20 for ‘quality’ defined as the intensity at the centre of the puncta, Gaussian filtered by […] (Doyon J B, et al., (2011)13(3):331-7.). Puncta were tracked over sequential frames using the Autoregressive motion particle-tracking algorithm. […] Quantification of track length during the period 0-5 min was determined from the 100 tracks with the highest velocity in each experimental group. […]

[2] = target: human CUB domain-containing protein 1 (CDCP1), expressed by cells (human) (UniProt Q9H5V8); experiment: flow cytometry of PANC-1 cells, 5 µg/ml antibody, APC-conjugated anti-mouse secondary; number in the IgG column (paragraph 330 calls the numbers of the 10D7 column MFI)
[3] = target: human CUB domain-containing protein 1 (CDCP1), expressed by cells (human) (UniProt Q9H5V8); experiment: flow cytometry of TKCC05 cells, 5 µg/ml antibody, APC-conjugated anti-mouse secondary; number in the IgG column (paragraph 330 calls the numbers of the 10D7 column MFI)
[4] = target: human CUB domain-containing protein 1 (CDCP1), expressed by cells (human) (UniProt Q9H5V8); experiment: flow cytometry of TKCC10 cells, 5 µg/ml antibody, APC-conjugated anti-mouse secondary; number in the IgG column (paragraph 330 calls the numbers of the 10D7 column MFI)
[5] = target: human CUB domain-containing protein 1 (CDCP1), expressed by cells (human) (UniProt Q9H5V8); experiment: flow cytometry of TKCC02 cells, 5 µg/ml antibody, APC-conjugated anti-mouse secondary; number in the IgG column (paragraph 330 calls the numbers of the 10D7 column MFI)
[6] = target: T1, recombinant CDCP1-ECD, spanning residue 30 to 665 (human, UniProt Q9H5V8 30-665); experiment: SPR, Biacore T200, antibody captured via Protein G on CM5 chip, CDCP1-ECD analyte 50 to 1.56 nM, 25 C
T1 construct: Recombinant protein described in Chen Y et al. 2017; also called CDCP1 extracellular domain (ECD)
T1 sequence: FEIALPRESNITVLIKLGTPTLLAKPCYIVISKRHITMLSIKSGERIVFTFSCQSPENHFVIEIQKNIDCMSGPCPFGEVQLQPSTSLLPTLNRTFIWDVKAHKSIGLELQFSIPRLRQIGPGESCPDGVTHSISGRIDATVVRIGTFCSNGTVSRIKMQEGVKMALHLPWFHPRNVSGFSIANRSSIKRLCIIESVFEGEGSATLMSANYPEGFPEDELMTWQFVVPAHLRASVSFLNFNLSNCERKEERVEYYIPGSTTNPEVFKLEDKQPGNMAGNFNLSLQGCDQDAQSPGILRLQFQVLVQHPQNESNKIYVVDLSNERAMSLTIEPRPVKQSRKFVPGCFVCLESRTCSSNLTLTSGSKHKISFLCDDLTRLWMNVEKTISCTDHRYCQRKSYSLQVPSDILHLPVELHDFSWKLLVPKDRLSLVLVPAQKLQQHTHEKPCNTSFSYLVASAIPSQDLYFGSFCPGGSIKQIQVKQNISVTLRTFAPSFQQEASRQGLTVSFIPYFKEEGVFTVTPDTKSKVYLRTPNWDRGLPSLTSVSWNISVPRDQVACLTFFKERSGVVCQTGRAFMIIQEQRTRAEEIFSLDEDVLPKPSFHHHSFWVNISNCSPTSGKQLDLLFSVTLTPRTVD

[7] = target: T1, recombinant CDCP1-ECD, spanning residue …; experiment: SPR, Biacore T200, antibody captured via Protein G, CDCP1-ECD analyte; reference 41-2
[8] = target: T1, recombinant CDCP1-ECD, spanning residue …; experiment: SPR (Biacore T200), antibody captured via Protein G on a CM5 chip, CDCP1-ECD 1.56 to 50 nM as analyte, 25 °C
[9] = tested on: TKCC05 cells; experiment: Confocal microscopy of TKCC05 cells treated with 10D7-Qdot; type: cell-based, human
Experimental: Labelling of antibody 10D7 with fluorescent Qdot 625 probes was performed using a kit supplied by the manufacturer. TKCC05 cells were grown on poly-Lysine treated […] chamber slides (DKSH, Hallam, Australia) until 70% confluent then incubated with 10D7-Qdot. After 5, 10 and 120 min cells were fixed with 4% paraformaldehyde for 15 min at room temperature (RT), washed with PBS, then incubated with DAPI to highlight cell nuclei and Alexa Fluor 488 phalloidin to highlight cell cytoplasms (30 min at RT). Imaging was performed on a Nikon/Spectral Spinning Disc Confocal microscope.
To assess the impact of antibody 10D7 on CDCP1 expressed by PDAC, the inventors performed confocal microscopy and western blot analysis of patient-derived PDAC cells treated with this antibody for defined periods of time. […] Western blot analysis confirmed that 10D7 induces rapid transient tyrosine phosphorylation of CDCP1-ATF in TKCC05 cells and CDCP1-FL in TKCC10 cells, while Src was also transiently tyrosine phosphorylated in these cells in response to 10D7 (FIG. 11B). […] The data are consistent with CDCP1-ATF remaining tethered to the plasma membrane likely via CDCP1-CTF and indicate that intact and cleaved CDCP1 can be functionally targeted with antibody 10D7 in PDAC cells. Thus, antibody 10D7 is effective at targeting uncleaved as well as cleaved CDCP1 that are present on the surface of cancer cells.

[10] = target: T2, human CUB domain-containing protein 1 (CDCP1), expressed by cells (human, UniProt Q9H5V8 30-836); experiment: summary of co-IP, SEC and reducing/non-reducing Western blots
T2 construct: also called CDCP1-FL; CD318
T2 sequence: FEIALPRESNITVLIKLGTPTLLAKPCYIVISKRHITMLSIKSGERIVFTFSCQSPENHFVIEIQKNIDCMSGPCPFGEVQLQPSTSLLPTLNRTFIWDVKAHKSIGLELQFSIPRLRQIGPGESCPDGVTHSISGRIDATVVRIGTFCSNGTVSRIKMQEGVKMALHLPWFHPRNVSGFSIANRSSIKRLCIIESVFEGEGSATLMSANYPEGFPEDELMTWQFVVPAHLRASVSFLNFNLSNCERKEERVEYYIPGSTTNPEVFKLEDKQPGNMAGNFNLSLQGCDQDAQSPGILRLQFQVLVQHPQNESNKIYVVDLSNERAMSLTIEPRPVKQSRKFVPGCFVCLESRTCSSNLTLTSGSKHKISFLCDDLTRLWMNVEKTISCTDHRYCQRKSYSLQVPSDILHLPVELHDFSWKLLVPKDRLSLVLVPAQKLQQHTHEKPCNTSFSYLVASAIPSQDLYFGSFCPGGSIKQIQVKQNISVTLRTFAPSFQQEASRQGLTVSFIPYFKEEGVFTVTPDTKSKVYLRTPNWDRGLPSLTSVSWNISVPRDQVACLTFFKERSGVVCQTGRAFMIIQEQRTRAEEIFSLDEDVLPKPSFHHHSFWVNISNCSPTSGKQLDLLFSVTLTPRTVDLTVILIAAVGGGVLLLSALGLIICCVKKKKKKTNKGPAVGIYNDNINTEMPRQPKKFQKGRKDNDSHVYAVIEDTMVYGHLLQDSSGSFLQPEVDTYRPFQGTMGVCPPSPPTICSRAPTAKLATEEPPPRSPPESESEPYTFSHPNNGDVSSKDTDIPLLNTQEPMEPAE

Cc1nc(Nc2ncc(C(=O)Nc3c(C)cccc3Cl)s2)cc(N2CCN(CCO)CC2)n1 [dasatinib]
reduction of CDCP1^GFP track length in response to 10D7 [1]: about 80%

IgG (antibody)
MFI [2]: 202
MFI [3]: 234
MFI [4]: 133
MFI [5]: 216

B1: anti-CDCP1 mouse monoclonal antibody 10D7 (antibody, V domains shown)
VH: EVQLQQFGAELVKPGASVKISCKASGYSFSDFNIEWLKQSHGKSLEWIGDINPNYDSTNYNQKFKGRATLTVDKSSSTAYMEVRSLTSEDTAVYYCARLGYGYAMDYWGQGTSVTVSS
VL: NIVMTQSPQSMSMSVGERVTLSCKASENVGAYVSWFQQKPDQSPKLLILAASNRYTGVPARFIGSGSATDFTLTISSVQAEDLADYHCGQSYTYPYTFGGGTKLEIKR
notes: also called mAb 10D7; mouse 10D7 antibody
Kd [6]: 0.44 nM
fold stronger KD than 41-2 [7]: 2.7 fold
koff [8]: 0.000441 s⁻¹
kon [8]: 1e+06 M⁻¹ s⁻¹

B2: 10D7-Qdot (conjugate)
VH: EVQLQQFGAELVKPGASVKISCKASGYSFSDFNIEWLKQSHGKSLEWIGDINPNYDSTNYNQKFKGRATLTVDKSSSTAYMEVRSLTSEDTAVYYCARLGYGYAMDYWGQGTSVTVSS
VL: NIVMTQSPQSMSMSVGERVTLSCKASENVGAYVSWFQQKPDQSPKLLILAASNRYTGVPARFIGSGSATDFTLTISSVQAEDLADYHCGQSYTYPYTFGGGTKLEIKRADAAPTVS
time until apparent on the plasma membrane [9]: ≤ 5 min
internalization of antibody ([9]; after 120 min): largely internalized

B3: CDCP1 amino-terminal fragment (CDCP1-ATF), 65 kDa (receptor)
chain: FEIALPRESNITVLIKLGTPTLLAKPCYIVISKRHITMLSIKSGERIVFTFSCQSPENHFVIEIQKNIDCMSGPCPFGEVQLQPSTSLLPTLNRTFIWDVKAHKSIGLELQFSIPRLRQIGPGESCPDGVTHSISGRIDATVVRIGTFCSNGTVSRIKMQEGVKMALHLPWFHPRNVSGFSIANRSSIKRLCIIESVFEGEGSATLMSANYPEGFPEDELMTWQFVVPAHLRASVSFLNFNLSNCERKEERVEYYIPGSTTNPEVFKLEDKQPGNMAGNFNLSLQGCDQDAQSPGILRLQFQVLVQHPQNESNKIYVVDLSNERAMSLTIEPRPVKQSR
notes: Product of proteolytic cleavage of CDCP1
binding result [10]: binds
